Data published in paper doi:10.1101/2023.02.01.526621 (bioRxiv, 2023).

Target: T1, GST-CESA3CD (catalytic domain of cellulose synthase CESA3 fused to GST) (Arabidopsis thaliana, UniProt Q941L0 305-843)
T1 sequence (looked up): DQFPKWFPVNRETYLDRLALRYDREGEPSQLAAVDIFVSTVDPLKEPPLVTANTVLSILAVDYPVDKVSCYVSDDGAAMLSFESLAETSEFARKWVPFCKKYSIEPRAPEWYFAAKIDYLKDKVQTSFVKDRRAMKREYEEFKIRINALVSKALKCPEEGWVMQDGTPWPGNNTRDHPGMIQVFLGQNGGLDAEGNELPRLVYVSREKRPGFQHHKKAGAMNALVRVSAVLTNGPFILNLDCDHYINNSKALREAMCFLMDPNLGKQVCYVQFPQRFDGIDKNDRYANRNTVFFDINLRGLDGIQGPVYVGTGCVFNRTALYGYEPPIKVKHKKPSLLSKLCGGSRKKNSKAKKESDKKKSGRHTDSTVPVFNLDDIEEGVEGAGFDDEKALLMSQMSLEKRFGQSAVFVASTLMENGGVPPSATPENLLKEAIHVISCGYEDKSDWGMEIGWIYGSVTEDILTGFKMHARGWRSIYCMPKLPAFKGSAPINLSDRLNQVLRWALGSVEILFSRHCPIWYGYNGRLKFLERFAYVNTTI
Test: pull-down

B1: His-tagged full-length CALCIUM-DEPENDENT PROTEIN KINASE32 (His-CPK32) (enzyme, Arabidopsis thaliana, UniProt Q6NLQ6 1-538, looked up)
chain: MGNCCGTAGSLAQNDNKPKKGRKKQNPFSIDYGLHHGGGDGGGRPLKLIVLNDPTGREIESKYTLGRELGRGEFGVTYLCTDKETDDVFACKSILKKKLRTAVDIEDVRREVEIMRHMPEHPNVVTLKETYEDEHAVHLVMELCEGGELFDRIVARGHYTERAAAAVTKTIMEVVQVCHKHGVMHRDLKPENFLFGNKKETAPLKAIDFGLSVFFKPGERFNEIVGSPYYMAPEVLKRNYGPEVDIWSAGVILYILLCGVPPFWAETEQGVAQAIIRSVLDFRRDPWPKVSENAKDLIRKMLDPDQKRRLTAQQVLDHPWLQNAKTAPNVSLGETVRARLKQFTVMNKLKKRALRVIAEHLSDEEASGIREGFQIMDTSQRGKINIDELKIGLQKLGHAIPQDDLQILMDAGDIDRDGYLDCDEFIAISVHLRKMGNDEHLKKAFAFFDQNNNGYIEIEELREALSDELGTSEEVVDAIIRDVDTDKDGRISYEEFVTMMKTGTDWRKASRQYSRERFNSISLKLMQDASLQVNGDTR
binding result: binds
